Experimental data: publication PMC3517456

Legend:
Gal4AD-Caf1a = Gal4AD-Caf1a (UniProt Q9UIV1); assay: yeast two-hybrid (β-galactosidase reporter); details: yeast strain YRG-2, LacZ reporter under five GAL4 consensus sequences; triplicate; parent: est. 8.4; read off a plot
Gal4AD-Caf1b = Gal4AD-Caf1b (UniProt Q9UFF9); assay: yeast two-hybrid (β-galactosidase reporter); details: yeast strain YRG-2, LacZ reporter under five GAL4 consensus sequences; triplicate; parent: est. 25; read off a plot
Chain of UniProt Q9UFF9 (Q9UFF9 whole entry, the tested form may be a part): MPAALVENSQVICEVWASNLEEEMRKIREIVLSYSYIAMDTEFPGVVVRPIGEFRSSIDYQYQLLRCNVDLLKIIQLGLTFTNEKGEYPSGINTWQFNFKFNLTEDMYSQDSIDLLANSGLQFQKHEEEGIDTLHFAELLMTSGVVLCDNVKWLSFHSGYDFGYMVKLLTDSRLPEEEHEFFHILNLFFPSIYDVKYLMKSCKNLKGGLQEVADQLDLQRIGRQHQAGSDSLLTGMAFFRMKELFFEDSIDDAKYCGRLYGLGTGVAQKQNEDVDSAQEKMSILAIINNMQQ

Chain of UniProt Q9UIV1 (Q9UIV1 whole entry, the tested form may be a part): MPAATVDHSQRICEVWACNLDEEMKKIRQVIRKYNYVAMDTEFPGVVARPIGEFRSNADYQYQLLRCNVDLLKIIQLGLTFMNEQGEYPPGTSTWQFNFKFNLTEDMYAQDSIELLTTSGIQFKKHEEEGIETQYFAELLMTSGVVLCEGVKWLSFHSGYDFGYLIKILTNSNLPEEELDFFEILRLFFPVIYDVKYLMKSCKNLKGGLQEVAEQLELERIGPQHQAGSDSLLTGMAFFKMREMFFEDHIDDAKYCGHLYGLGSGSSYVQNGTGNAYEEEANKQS

## Gal4-DNA binding domain-TOB1 (from UniProt P50616) H45A
Gal4AD-Caf1a
  response: 1.7 x10^4 RLU
Gal4AD-Caf1b
  response: 2.8 x10^4 RLU
